# Data reported in publication PMC11641934.
# Target: heat shock protein 70 (HSP70) (human (endogenous in PDAC cell lines and CAFs)) (UniProt P0DMV8)
# UniProt P0DMV8, sequence (P0DMV8 whole entry): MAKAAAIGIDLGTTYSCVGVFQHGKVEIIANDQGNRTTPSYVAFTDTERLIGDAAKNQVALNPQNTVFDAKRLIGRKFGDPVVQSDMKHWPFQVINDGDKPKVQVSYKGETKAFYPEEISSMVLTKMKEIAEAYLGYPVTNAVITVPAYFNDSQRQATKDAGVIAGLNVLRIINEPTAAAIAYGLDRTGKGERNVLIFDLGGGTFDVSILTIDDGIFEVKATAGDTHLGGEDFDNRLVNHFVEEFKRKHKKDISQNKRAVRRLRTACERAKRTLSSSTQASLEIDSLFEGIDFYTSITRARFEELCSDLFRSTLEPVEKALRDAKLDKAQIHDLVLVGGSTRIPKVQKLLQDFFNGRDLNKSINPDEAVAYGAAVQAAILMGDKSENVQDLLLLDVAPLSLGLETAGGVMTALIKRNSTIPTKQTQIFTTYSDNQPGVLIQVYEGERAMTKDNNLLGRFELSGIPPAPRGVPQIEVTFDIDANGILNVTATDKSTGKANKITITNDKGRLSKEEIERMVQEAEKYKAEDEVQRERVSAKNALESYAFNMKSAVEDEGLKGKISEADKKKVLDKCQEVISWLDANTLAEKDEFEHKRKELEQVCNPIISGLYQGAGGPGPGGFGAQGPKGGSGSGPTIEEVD
substance,measurement,value
His tagged-recombinant Pn-ASV with exon 21 (Pn 2-1) (from UniProt Q15063-5 22-809) (natural protein),"% rescue by recombinant Pn 2-1 in GEM-treated AsPC1 cells, CTRL siRNA group (counteracted by HSPA1A knockdown)",11.2%
same,"% rescue by recombinant Pn 2-1 in GEM-treated BxPC3 cells, CTRL siRNA group (counteracted by HSPA1A knockdown)",5.4%
same,"% rescue by recombinant Pn 2-1 in GEM-treated Panc1 cells, CTRL siRNA group (counteracted by HSPA1A knockdown)",86.3%
